The data set concerns the molecule itself. Kind of data set: SEC; analytical size exclusion chromatography of recombinant CDH26A, 'in cell lysates'; details in the Supplementary Information. For orientation: In gel filtration, larger molecules generally elute earlier.

B1: full-length recombinant CDH26A (cadherin-26, transcript variant A) (natural protein, human, UniProt Q8IXH8-4 28-832, looked up)
chain: DSVQQETDDLTKQTKEKIYQPLRRSKRRWVITTLELEEEDPGPFPKLIGELFNNMSYNMSLMYLISGPGVDEYPEIGLFSLEDHENGRIYVHRPVDREMTPSFTVYFDVVERSTGKIVDTSLIFNIRISDVNDHAPQFPEKEFNITVQENQSAGQPIFQMLAVDLDEENTPNSQVLYFLISQTPLLKESGFRVDRLSGEIRLSGCLDYETAPQFTLLIRARDCGEPSLSSTTTVHVDVQEGNNHRPAFTQENYKVQIPEGRASQGVLRLLVQDRDSPFTSAWRAKFNILHGNEEGHFDISTDPETNEGILNVIKPLDYETRPAQSLIIVVENEERLVFCERGKLQPPRKAAASATVSVQVTDANDPPAFHPQSFIVNKEEGARPGTLLGTFNAMDPDSQIRYELVHDPANWVSVDKNSGVVITVEPIDRESPHVNNSFYVIIIHAVDDGFPPQTATGTLMLFLSDINDNVPTLRPRSRYMEVCESAVHEPLHIEAEDPDLEPFSDPFTFELDNTWGNAEDTWKLGRNWGQSVELLTLRSLPRGNYLVPLFIGDKQGLSQKQTVHVRICPCASGLTCVELADAEVGLHVGALFPVCAAFVALAVALLFLLRCYFVLEPKRHGCSVSNDEGHQTLVMYNAESKGTSAQTWSDVEGQRPALLICTAAAGPTQGVKDLEEVPPSAASQSAQARCALGSWGYGKPFEPRSVKNIHSTPAYPDATMHRQLLAPVEGRMAETLNQKLHVANVLEDDPGYLPHVYSEEGECGGAPSLSSLASLEQELQPDLLDSLGSKATPFEEIYSESGVPS
notes: cadherin-26 (CDH26), human, product of transcript variant A (NM_177980; 18 exons; predicted protein molecular weight 92.4 kDa); full-length recombinant protein; also called rCDH26A; source: purified by the University of North Carolina Protein Expression and Purification Core Facility; for the analytical SEC 'in cell lysates'
In the case of B1, the binding result is “binds”.

Values taken from article PMC5809386, “Cadherin-26 (CDH26) regulates airway epithelial cell cytoskeletal structure and polarity” (Cell Discovery, 2018).
